In patent US20220040319A1 (Regeneron, published 2022):
Like-named read-outs stand apart in the source and are kept apart here. Blank lines part the entries; values can stand above or below the binder they belong to.

Legend:
[1] = target: T1, hMet.mmh (human MET extracellular domain with C-terminal myc-myc-hexahistidine tag) (human, UniProt P08581 309-914; P08581 27-307); experiment: SPR 37C, antibody captured
T1 construct: soluble monomeric MET; also called monomeric human MET
Experimental: (§1) Kinetic association (kₐ) and dissociation (kd) rate constants were determined as described in Example 3.

[2] = target: T2, human MET on cells (human, UniProt P08581 25-1390); experiment: cell-based or functional assay
T2 sequence (P08581 25-1390 limits assumed, form in doubt): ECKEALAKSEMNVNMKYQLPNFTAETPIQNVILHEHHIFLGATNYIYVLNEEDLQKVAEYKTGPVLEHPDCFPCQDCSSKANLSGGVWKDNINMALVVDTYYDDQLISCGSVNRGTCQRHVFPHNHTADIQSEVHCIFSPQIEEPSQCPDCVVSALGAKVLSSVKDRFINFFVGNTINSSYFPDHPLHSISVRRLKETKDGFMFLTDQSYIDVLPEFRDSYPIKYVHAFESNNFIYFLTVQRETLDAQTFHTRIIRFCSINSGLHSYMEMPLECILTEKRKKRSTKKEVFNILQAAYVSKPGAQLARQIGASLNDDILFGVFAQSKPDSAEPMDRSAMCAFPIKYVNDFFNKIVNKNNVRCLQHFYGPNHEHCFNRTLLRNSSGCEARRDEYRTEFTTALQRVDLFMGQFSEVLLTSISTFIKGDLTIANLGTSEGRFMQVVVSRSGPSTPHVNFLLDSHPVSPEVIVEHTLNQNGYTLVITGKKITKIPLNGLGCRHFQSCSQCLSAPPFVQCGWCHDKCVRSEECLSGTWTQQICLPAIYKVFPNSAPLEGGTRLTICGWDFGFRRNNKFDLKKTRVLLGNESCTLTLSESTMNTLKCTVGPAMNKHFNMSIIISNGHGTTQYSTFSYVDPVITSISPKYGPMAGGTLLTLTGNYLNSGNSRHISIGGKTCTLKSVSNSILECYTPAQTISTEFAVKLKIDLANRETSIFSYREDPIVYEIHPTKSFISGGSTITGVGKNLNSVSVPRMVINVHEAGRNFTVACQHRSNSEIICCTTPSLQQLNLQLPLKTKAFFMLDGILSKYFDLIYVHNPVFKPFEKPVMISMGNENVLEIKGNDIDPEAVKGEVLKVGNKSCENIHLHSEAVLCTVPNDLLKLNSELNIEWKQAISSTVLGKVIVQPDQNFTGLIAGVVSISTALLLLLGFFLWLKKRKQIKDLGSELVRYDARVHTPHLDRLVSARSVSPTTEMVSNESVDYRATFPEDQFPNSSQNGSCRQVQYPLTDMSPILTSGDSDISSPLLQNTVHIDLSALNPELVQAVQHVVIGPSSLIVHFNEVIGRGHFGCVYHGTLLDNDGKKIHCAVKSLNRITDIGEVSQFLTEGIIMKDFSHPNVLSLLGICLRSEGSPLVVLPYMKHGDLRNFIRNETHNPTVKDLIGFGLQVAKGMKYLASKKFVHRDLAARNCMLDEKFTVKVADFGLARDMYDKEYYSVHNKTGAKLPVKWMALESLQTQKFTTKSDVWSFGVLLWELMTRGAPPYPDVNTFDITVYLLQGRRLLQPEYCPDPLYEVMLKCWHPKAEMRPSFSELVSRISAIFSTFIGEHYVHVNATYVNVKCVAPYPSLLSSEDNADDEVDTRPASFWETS

[3] = target: T2, human MET on cells; experiment: cell-based or functional assay; remark: listed apart in the source
[4] = target: T1, hMet.mmh (human MET extracellular …); experiment: SPR 37C, antibody captured; remark: listed apart in the source
Experimental: as §1

[5] = target: MET (c-Met, hepatocyte growth factor receptor) on cells (human, UniProt P08581 25-1390); experiment: cell-based or functional assay
Chain of MET (c-Met, hepatocyte growth factor receptor) on cells (P08581 25-1390 limits assumed, form in doubt): as above

[6] = target: T3, hMET.mFc (dimeric human MET) (human, UniProt P08581 27-307); experiment: SPR 37C, antibody captured
T3 construct: soluble dimeric MET protein
T3 sequence (P08581 other isoform, or with tags, fused parts or gaps limits assumed, chain 1 of 2): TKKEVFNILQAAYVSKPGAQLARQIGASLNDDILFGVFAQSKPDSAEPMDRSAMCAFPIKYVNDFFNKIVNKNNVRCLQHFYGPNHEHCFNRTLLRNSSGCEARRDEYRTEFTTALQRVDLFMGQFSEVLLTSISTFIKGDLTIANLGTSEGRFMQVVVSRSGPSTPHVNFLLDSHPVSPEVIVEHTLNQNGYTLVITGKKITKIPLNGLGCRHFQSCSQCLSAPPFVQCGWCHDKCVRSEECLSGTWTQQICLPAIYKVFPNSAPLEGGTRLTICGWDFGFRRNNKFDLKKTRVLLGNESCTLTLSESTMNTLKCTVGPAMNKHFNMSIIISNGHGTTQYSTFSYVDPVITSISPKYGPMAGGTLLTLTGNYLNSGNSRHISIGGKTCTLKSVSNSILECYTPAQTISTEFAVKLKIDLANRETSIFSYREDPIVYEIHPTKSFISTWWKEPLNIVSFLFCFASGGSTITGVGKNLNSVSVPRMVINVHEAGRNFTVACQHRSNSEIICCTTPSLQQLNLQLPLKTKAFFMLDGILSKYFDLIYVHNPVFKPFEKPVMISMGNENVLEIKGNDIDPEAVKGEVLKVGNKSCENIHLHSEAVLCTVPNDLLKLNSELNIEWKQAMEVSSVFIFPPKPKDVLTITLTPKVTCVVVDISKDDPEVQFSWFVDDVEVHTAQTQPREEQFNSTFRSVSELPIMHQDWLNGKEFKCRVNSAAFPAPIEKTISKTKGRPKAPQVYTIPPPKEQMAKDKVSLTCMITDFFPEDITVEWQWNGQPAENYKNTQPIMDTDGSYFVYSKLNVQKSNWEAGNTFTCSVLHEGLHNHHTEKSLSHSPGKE
T3 sequence (P08581 27-307 limits assumed, chain 2 of 2): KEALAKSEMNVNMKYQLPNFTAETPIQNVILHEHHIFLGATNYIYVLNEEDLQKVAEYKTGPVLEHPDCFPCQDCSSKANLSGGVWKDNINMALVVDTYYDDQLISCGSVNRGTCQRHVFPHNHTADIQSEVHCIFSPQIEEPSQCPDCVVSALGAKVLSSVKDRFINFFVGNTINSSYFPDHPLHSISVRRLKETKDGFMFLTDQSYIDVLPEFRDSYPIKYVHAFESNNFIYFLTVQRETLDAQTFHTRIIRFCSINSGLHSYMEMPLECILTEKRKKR
Experimental: (§2) The anti-Met antibodies tested in this example were bivalent monospecific binders of MET.
(§3) Kinetic association (kₐ) and dissociation (kd) rate constants were determined by fitting the real-time sensorgrams to a 1:1 binding model using Scrubber 2.0c curve fitting software. Binding dissociation equilibrium constant (KD) and dissociative half-life (t1/2) were calculated from the kinetic rate constants as: […]

[7] = target: T1, hMet.mmh (human MET extracellular …); experiment: SPR 37C, antibody captured; remark: listed apart in the source
Experimental: as §2, §3
Throughout, for % Inhibition, HEK293/SRE-Luc Blocking Activity (HGF, 1 h mAb pre-bind): test concentration or dose not given here.

T1 sequence (P08581 other isoform, or with tags, fused parts or gaps limits assumed, chain 1 of 2): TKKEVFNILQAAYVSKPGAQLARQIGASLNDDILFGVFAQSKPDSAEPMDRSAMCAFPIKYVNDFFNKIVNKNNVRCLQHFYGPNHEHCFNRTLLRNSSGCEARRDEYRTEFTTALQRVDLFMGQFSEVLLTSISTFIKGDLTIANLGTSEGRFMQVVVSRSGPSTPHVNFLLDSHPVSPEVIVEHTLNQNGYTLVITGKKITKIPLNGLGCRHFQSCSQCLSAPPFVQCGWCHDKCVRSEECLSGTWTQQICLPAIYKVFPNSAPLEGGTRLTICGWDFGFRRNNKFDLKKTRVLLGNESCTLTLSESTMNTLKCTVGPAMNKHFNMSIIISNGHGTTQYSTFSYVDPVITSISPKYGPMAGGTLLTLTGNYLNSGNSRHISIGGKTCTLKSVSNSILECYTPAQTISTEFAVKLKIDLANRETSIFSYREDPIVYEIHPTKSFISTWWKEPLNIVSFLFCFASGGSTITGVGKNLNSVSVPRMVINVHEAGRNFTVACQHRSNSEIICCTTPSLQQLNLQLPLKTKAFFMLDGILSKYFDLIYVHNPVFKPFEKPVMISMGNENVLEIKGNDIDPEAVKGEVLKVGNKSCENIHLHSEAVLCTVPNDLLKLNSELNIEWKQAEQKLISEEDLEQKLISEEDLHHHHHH
T1 sequence (P08581 27-307 limits assumed, chain 2 of 2): as the sequence (P08581 27-307 limits assumed, chain 2 of 2) above

- Relative MET Level, SNU5 cells, 18 hrs [2]: 0.31 relative to control (hFc)
- % Inhibition, HEK293/SRE-Luc Blocking Activity (HGF, 1 h mAb pre-bind) [3]: 75%
- EC50, Ligand (HGF)-Independent HEK293/SRE-Luc Activation [3]: 84 nM
- Fold Response, Ligand (HGF)-Independent HEK293/SRE-Luc Activation [3]: 4.4 fold
- IC50, HEK293/SRE-Luc Blocking Activity (HGF, 1 h mAb pre-bind) [3]: 2.7 nM
B2: H4H14641D (bispecific antibody, human IgG4, V domains shown)
VH 1: QVQLVESGGGVVQPGRSLRLSCSASGFSFSHFGMHWVRQVPGGGLEWVTSIWFDGSNRYYADSLKGRFTISRDNSKNTLYLEMNSLRAEDTAVYYCVREGILGTTNPYDVFDVWGQGTMVTVSS
VH 2: EVQLVESGGGLVQPGGSLRLSCAASGFIVTTNYMTWLRQAPGKGLEWVSLIYSSGHTYYADSVKGRFTISRHNSKNTLYLQMDSLRAEDTAVYYCASAFAADVFDIWGQGTMVTVSS
VL: not shown

- Relative MET Level, SNU5 cells, 18 hrs [2]: 0.45 relative to control (hFc)
- % Inhibition, HEK293/SRE-Luc Blocking Activity (HGF, 1 h mAb pre-bind) [3]: 85%
- EC50, Ligand (HGF)-Independent HEK293/SRE-Luc Activation [3]: 0.09 nM
- Fold Response, Ligand (HGF)-Independent HEK293/SRE-Luc Activation [3]: 3.4 fold
- IC50, HEK293/SRE-Luc Blocking Activity (HGF, 1 h mAb pre-bind) [3]: 0.0097 nM
B5: H4H14634D (bispecific antibody, human IgG4, V domains shown)
VH 1: QVQLQESGPGLVKPSETLSLTCTVSGDSISSYYWTWIRQPPGKGLEWIGYIFYRGGTTYNPSLKSRVTISVDTSKNQFSLKLRSVTAADTAVYYCARGDDLLVVTSVYWYIDLWGRGTLVTVSS
VH 2: B2 VH 2
VL: not shown

- T½ [4]: 70.8 min
- koff [4]: 0.000163 s⁻¹
- T½ [1]: 70.8 min
- koff [1]: 0.000163 s⁻¹
- IC50 (read off the curve); blocking of HGF-dependent SRE-driven luciferase signal in HEK293T cells [5]: ~0.4 nM
B7: H4H14639D (bispecific antibody, human IgG4, V domains shown)
VH 1: EVQLVESGGGLVQPGTSLRLSCAASGFTFDDYAMHWVRQAPGKGLEWVSGITWNSYNIDYADSVKGRFTISRDNAKNSLYLQMNSLRAEDTALYYCAKDDDYSNYVYFDYWGQGTLVTVSS
VH 2: B2 VH 2
VL: not shown
notes: MET x MET bispecific, expressed as human IgG4; also called bispecific antibody No. 122; MET×MET bispecific antibody

- T½ [4]: 0.7 min
- Kd [6]: 2.15 nM
- T½ [6]: 4.4 min
- Kd [7]: 109 nM
- T½ [7]: 0.7 min
B9: H4H13306P2 (antibody, human IgG4, V domains shown)
VH: B7 VH 1
VL: not shown
notes: human IgG4 Fc (H4H), bivalent monospecific; also called parental antibody 1; M1

More lines, now with the values behind:

B1: H4H16449D (bispecific antibody, human IgG4, V domains shown)
VH 1: QVQLVESGGGVVQPGRSLRLSCAASGFTFSSFAMHWVRQAPGKGLEWVAVIWYDGSNDYYAASVKGRFTISRDNSKNTLYLEMNRLRAEDTAVYHCARDNWNYWGGMDVWGQGTTVTVSS
VH 2: B2 VH 2
VL: not shown
notes: MET x MET bispecific, expressed as human IgG4
- T½ [1]: 39.3 min
- koff [1]: 0.000294 s⁻¹

B3: H4H14637D (bispecific antibody, human IgG4, V domains shown)
VH 1: QVQLVESGGGVVQPGTSLRLSCVASGFTFRNFGMHWVRQAPGKGLEWVANIWFDGSNENYVESIQGRFTISRDNSKNTLNLQMNSLRAEDSAVYYCVREGILGTTNPYDAFDVWGQGTMVTVSS
VH 2: B2 VH 2
VL: not shown
- Relative MET Level, SNU5 cells, 18 hrs [2]: 0.49 relative to control (hFc)
- % Inhibition, HEK293/SRE-Luc Blocking Activity (HGF, 1 h mAb pre-bind) [3]: 73%
- EC50, Ligand (HGF)-Independent HEK293/SRE-Luc Activation [3]: 4.1 nM
- Fold Response, Ligand (HGF)-Independent HEK293/SRE-Luc Activation [3]: 2.1 fold

B4: H4H14636D (bispecific antibody, human IgG4, V domains shown)
VH 1: EVQLVESGGGLVQPGGSLRLSCAASGFIFSNYEMNWVRQAPGKGLEWISYITSSGNMKYYADSVKGRFTISRDNDKNSLYLQMSSLRVEDTAVYYCVRGGRFLEWLTYYVMVVWGQGTTVTVSS
VH 2: B2 VH 2
VL: not shown
- Relative MET Level, SNU5 cells, 18 hrs [2]: 0.5 relative to control (hFc)
- % Inhibition, HEK293/SRE-Luc Blocking Activity (HGF, 1 h mAb pre-bind) [3]: 74%
- EC50, Ligand (HGF)-Independent HEK293/SRE-Luc Activation [3]: 0.28 nM
- Fold Response, Ligand (HGF)-Independent HEK293/SRE-Luc Activation [3]: 2.8 fold

B6: H4H16446D (bispecific antibody, human IgG4, V domains shown)
VH 1: QVQLVESGGGVVQPGRSLRLSCAVSGFTFSSYGMHWVRQAPGKGLEWVANIWYDGTNDYYPYSVKGRFTISRDNSQNTLYLQMNSLRAEDTAVYYCAREDFINYRSFDYWGQGTLVTVSS
VH 2: B2 VH 2
VL: not shown
notes: MET x MET bispecific, expressed as human IgG4; also called bispecific antibody No. 58
- T½ [1]: 112 min
- koff [1]: 0.000103 s⁻¹

B8: H4H16447D (bispecific antibody, human IgG4, V domains shown)
VH 1: QVQLVESGGGVVQPGRSLRLSCAASGFTFSSYAMHWVRQAPGRGLEWVAVIWHDGDVEYYVDSVKDRFTISRDNSKSTLYLQMNSLRAEDTALYYCAREAWDLLRPFDYWGQGTLVTVSS
VH 2: B2 VH 2
VL: not shown
notes: MET x MET bispecific, expressed as human IgG4; also called bispecific antibody No. 154
- T½ [1]: 13.6 min
